# Measurements reported in the DeepSol protein solubility set.
# Experiment: soluble on expression in E. coli; label from the status in PepcDB or PDB records
row,Sequence,soluble on expression in E. coli
1,TPVLIRQLANKDRAREFSFLKDLGKDIAHFRFLGSFSTHAKVHDQLMDIDLHNRMAYIALAYDNDELTEIGVARYGAYEGDAHCEFAIAVSEKWQRRGVATALLKRLMETATKEGFSKISSMDASKNLAMDGLATSMGFTCRVDEKHGPRIFHEYVLVQ,not soluble
2,MGSDKIHHHHHHMRRKIPSSTTLMAFEVAARHGSFARAAEELSLTEGAISRQIGRLEAFLGVTLFERVGNRVRLLPNGERYAAQVRESLDRLDRDSQYLMGQPSDGASLDIATIPTFAMRWLIPRLSRFQQKHPNITVHLAERMDPFVLAGSGFDAAIHFEHPAWTGMRTHQLLHEVLVPVCHPELLTGRKRKTALDELPRLHRRQNPEAWLQYSQETGTPLTNPAIGARYDLHGMLIEAALAGLGVALVPRLYVETELALGNLVAPWPEGKTISKTFCLILPEPIGLSREPIQAFAQWLLDEAKKGNSG,not soluble
3,MKCKVYTVVVPNVQSATLLPIIREKVKPDSIVYTDTFRSYDVLDVSEFSHFRINHSTHFAENHNYINGIGNFWNHAKRHLQKFNGIPKEHFELYLKECEWRFNNSEIKSQISILKQLVKGSLVLEHHHHHH,not soluble
4,MQTETIHNIPYVNSNLTSFIDYLEKHYIDQKIGAVISTVNPEIAFAAIKDRDYFDVLSSSNFILPDGIGVVMMSRLTNNRLQSRIAGYDVFKELLGVANKKKKRIFLYGAKKDVIKGVVSKISSEYPNIKIAGYSDGYVQDRTLVAKQIARANPDMVFVALGYPHQEKFIHNYRHLFPKAVSIGLGGSFDVFSGNVKRAPSWMIRLNLEWFYRLILNPWRWKRMLSIPKYALTVLKEEKNKKTFYPKPEKDHTKQI,not soluble
5,MGSDKIHHHHHHMHHESPIRRRKTRQIHVGKVAIGGDAPISVQSMTNTETRDIAATVAQIRRLEAVGADIVRISVPSMDAAEAFKTIRAQVETPLVADIHFDHRIALQVMEDGVDGLRINPGNIGSLDKTRLVVEMAKDKGIPIRIGVNAGSLEKDIQEKYGEPTPEALVESALRHVSILDELNFHDVKISVKASDIFLAVSAYRLLSEKVDYPLHLGITEAGGLRSGTVKSAIGLGLLLRDGIGDTIRVSLAADPVEEIRVGFDILKSLHLRQKGINLIACPSCSRQEFDVITTINALEARLEDILEPMDVSVIGCVVNGIGEAKEADIGLAGGDKRSILYYRGKQVDRVENNDIVDVLEKRIRAEIAERQATRHEG,not soluble
6,SQEQAQTTDWRATLKTIRNGVHKIDTYLNAALDLLGGEDGLCQYKCSDGSKPFPRYGYKPSPPNGCGSPLFGVHLNIGIPSLTKCCNQHDRCYETCGKSKNDCDEEFQYCLSKICRDVQKTLGLTQHVQACETTVELLFDSVIHLGCKPYLDSQRAACRCHYEEKTDL,soluble
7,RFSEVLSTPEYDNAKSPVTLALGHDIGGKPVITDLAKMPHLLVAGTTGSGKSVGVNAMILSILFKSGPEDAKLIMIDPKMLELSIYEGIPHLLCPVVTDMKDAANALRWSVAEMERRYKLMAKMGVRNLSGFNQKVKEAQDAGEPLADPLYKRESIHDEAPLLTKLPTIVVVVDEFADMMMIVGKKVEELIARIAQKARAAGIHLILATQRPSV,not soluble
8,MGSDKIHHHHHHMNAQTPIRRPISLVLASPRGFCAGVDRAIQIVERAVEKFGAPVYVRHEIVHNRHVVDRLKALGAVFIEELEEAPDDRPVVFSAHGVPKSVPAEAKARQMIYLDATCPLVSKVHVEAQKHYDAGREIVLIGHAGHPEVIGTMGQLPEGAVTLIEDLKDAAAWEPKDAANVAFLTQTTLSVDDTADMVALLRERFPGIAAPHKEDICYATTNRQDAVKHLAEQSELILVVGSKNSSNSVRLKEVGLKAGARDAHLIDDASGIDWTWFDGISRVGLTAGASAPEDLVQGVIDAISARFDTTVEELVEARETITFKLPRLLTA,not soluble
9,MKKLATLTALAGALTMAVATAAQAESKSSSTDNTATPCVGDKCVKTKAAEGKCGEGKCGADKAKSAEGKCGEGKCGADKAKSAEGKCGEGKCGSK,not soluble
10,MGHHHHHHSHIAFLGPKGSYSHLAARQYAARHFEQFIESGCAKFADIFNQVETGQADYAVVPIENTSSGAINDVYDLLQHTSLSIVGEMTLTIDHCLLVSGTTDLSTINTVYSHPQPFQQCSKFLNRYPHWKIEYTESTSAAMEKVAQAKSPHVAALGSEAGGTLYGLQVLERIEANQRQNFTRFVVLARKAI,soluble
11,MGSDKIHHHHHHMSKTRYYLEQCIPEMDDLVEKGLFTKNEVSLIMKKRTDFEHRLNSRGSSINDYIKYINYESNVNKLRAKRCKRILQVKKTNSLSDWSIQQRIGFIYQRGTNKFPQDLKFWAMYLNYMKARGNQTSYKKIHNIYNQLLKLHPTNVDIWISCAKYEYEVHANFKSCRNIFQNGLRFNPDVPKLWYEYVKFELNFITKLINRRKVMGLINEREQELDMQNEQKNNQAPDEEKSHLQVPSTGDSMKDKLNELPEADISVLGNAETNPALRGDIALTIFDVCMKTLGKHYINKHKGYYAISDSKMNIELNKETLNYLFSESLRYIKLFDEFLDLERDYLINHVLQFWKNDMYDLSLRKDLPELYLKTVMIDITLNIRYMPVEKLDIDQLQLSVKKYFAYISKLDSASVKSLKNEYRSYLQDNYLKKMNAEDDPRYKILDLIISKL,not soluble
12,MCMIVYFFFIHKPLAFYFIRLFHPHPFPVVLDHILLLISSLIGFKSQDSSFRHQNSDCQMNVFQVIIFLLSVLAVFSSADLSIDGESLVLSINEEGPIKVRRARETGEH,not soluble
13,MGDEFRPSHEERSKMYKSNVRDQNEMRRKRREDEVQIRKNRRDEKFERNRQITVQRSLSHEETSELLKSVADGLQSMQETTIHEALTVLHENLNNTVWTIHVLVKVQILHKLSDVYCNRVISQTTRLLISRTLLKISGIDEVKYERYSSDDRCIQSLVFNISTYGSSEDILCDTFQSIACFIIRSITYRNLALDCAIVSELIDASTINMSIILHRSLMWLVFLFCEKLDRCSPHVDEIAPLLEIISNGIQSTDAMVQTDAASSCASLAEWPPIYHYMSDLKLCSKLVANLRNDKGNARPKVKAGINSIIQATGYFTEEMIDAGLLEVLKGFVNVSYMSQEVCFIISNICVEGEQTIDKLISSGVLREVARVMEASEYRSRREAAFVICHCCASANQKHLEYVVELGMLSAFTDLLTCMDVSLVSYILDAIYLLLQFGEMRLLPDNSNPVAIKLEEIGCREKLEFLCESQSVDIHARAYTIIDRFYVDDDAPLNDDPFAGYQRNNIDDTIEKMIREPIMDQPFSF,not soluble
14,MMEVRINKFLSEAGVASRRKAEKLILEGRVKVNGEVVRSLGVKVNPEVDIVEVDGKPVKPQRKRYIILNKPCCYLTQLGRSPDGRKTIEELIKDIPERVFPVGRLDYNTEGLLILTNDGELANRILHPRYKLPKVYLALVEGKVDQKTLKRMKQGIELEDGFAKPDNIRIVRYEGKNTLLEITFHEGRKHLVKRFLGAFGHKVKRLKRIAIGPIKLGKLSPGKWRELNQGELAQLFKAVGLKYVPRKRRLEHHHHHH,soluble
15,MGSDKIHHHHHHMLSVFVVNLRSNSAPFSFSRLLMHTTIVNERSLRTCNFPITLQDIRTLKELYRLKAETRDLRKPIVRNIMKQRVVGKGCLESLKNALYSLETIYIDDYTGQRLLRIDGMKQIEVDLTYEIRELQKDIYYLEYGEDRFIEYLAKFIPGFTDYVTEGVEMLRGKSFNAFITDRDGTTNNYCGRYRSSIQPIYNSVFLSRFAKNCCRYPMIVTSAPLKDFGILNVSINPEHIFVYAGSKGREFIDIDGQFHSFPIEPGKQELIRLLNERMQLLLLDPSFEKFNFIGSALQMKFGQTTIARQDITRSVNEAESAAFLEKIKGIVRDIDPEGKNFRIEDTGLDIEIILTIDVDPKTGMIRDFDKGDGLEFICRKMNIDHTGEPVLVCGDTSSDIPMLKKAMEMYDDVWAIFVTRDEKLMQRVREICPKSYMVPYPDILLTILGLLSL,not soluble
16,MGSDKIHHHHHHMLFHKFFDFFEGYEDCYVIIGGNAAAIWLAQDHQDFRATQDYDMVVIFENSQLGFSQKFDDFIEKYGYLCVEIGGDVNKKKVYYRFALDPALAVTGVPQQIELFSKIPLRYELRLPTETMPLHFATGPSLSAIVLNDDYYSLLKQCQQKIGHVSILSVPGLIYFKAKAHLDIRQRLANGDKLRHRANKNKHYKDVCRLCDLIIENQTFDSKVVPRTCQNDLKSFIQLVEAEPEQIFKKRFKSDPDFDLNRDEVVRVLRSLLPTS,not soluble
17,PRGSHMAEYLRLPHSLAMIRLCNPPVNAVSPTVIREVRNGLQKAGSDHTVKAIVICGANGNFCAGADIHGFSAFTPGLALGSLVDEIQRYQKPVLAAIQGVALGGGLELALGCHYRIANAKARVGLPEVTLGILPGARGTQLLPRVVGVPVALDLITSGKYLSADEALRLGILDAVVKSDPVEEAIKFAQKIIDKPIEPRRIFNKPVPSLPNMDSVFAEAIAKVRKQYPGVLAPETCVRSIQASVKHPYEVGIKEEEKLFMYLRASGQAKALQYAFFAEKSANKWSTPSGASWKTASAQPVSSVGVLGLGTMGRGIAISFARVGISVVAVESDPKQLDAAKKIITFTLEKEASRAHQNGQASAKPKLRFSSSTKELSTVDLVVEAVFEDMNLKKKVFAELSALCKPGAFLCTNTSALNVDDIASSTDRPQLVIGTHFFSPAHVMRLLEVIPSRYSSPTTIATVMSLSKKIGKIGVVVGNCYGFVGNRMLAPYYNQGFFLLEEGSKPEDVDGVLEEFGFKMGPFRVSDLAGLDVGWKIRKGQGLTGPSLPPGTPVRKRGNSRYSPLGDMLCEAGRFGQKTGKGWYQYDKPLGRIHKPDPWLSTFLSQYREVHHIEQRTISKEEILERCLYSLINEAFRILEEGMAARPEHIDVIYLHGYGWPRHKGGPMFYAASVGLPTVLEKLQKYYRQNPDIPQLEPSDYLRRLVAQGSPPLKEWQSLAGPHGSKL,soluble
18,MKKSYLVTPLVAGALILPAALPATAAQASAPAPAAVSTVNKTALTTDQIKAERSALNSRINMLQETQKAIPGSQYADQIEDLIKTALDLSGAIDTIAHGGVPAYDPATIVPRIHLAIDAADAIKTGNTTLQHKVKKAHVELGLEIAKASIVAINPASSVAQVQDEIKALKARIDKVSAYPDLSKDDTATIAYKQTLRKTIHEVRVGRNKNIVGKKDQAVVDTLNKEISKADKVRANAKSTVAQVDTAVDQLRAAYQTALNAPDKAKKLEHHHHHH,not soluble
19,MSLKDPLSEALVRLNQKVDSELIPEIKRFPLIGISTDISPKRTAVNTAYVQSVILSGGIPYMIPVTDNVEILRQIVSRLDGIVFTGGEDIQPMYYGDLPYEKLEEVSPARDTFDLMVLKMAADRNIPILGICRGLQLMNVAFGGTLYQDLPTQHPSSVNHRQKESGTTTTHPISIIKGSKLADITGQEVLQVNTFHHQAIQKLAPGFKITAWAPDSIAEAIEAYPIRQMIGVQFHPEIFTAAGDTTMHKLFKFLVNKADEGHHHHHH,not soluble
20,MTPFMTEDFLLDTEFARRLYHDYAKDQPIFDYHCHLPPQQIAEDYRFKNLYDIWLKGDHYKWRAMRTNGVAERLCTGDASDREKFDAWAATVPHTIGNPLYHWTHLELRRPFGITGKLLSPSTADEIWNECNELLAQDNFSARGIMQQMNVKMVGTTDDPIDSLEHHAEIAKDGSFTIKVLPSWRPDKAFNIEQATFNDYMAKLGEVSDTDIRRFADLQTALTKRLDHFAAHGCKVSDHALDVVMFAEANEAELDSILARRLAGETLSEHEVAQFKTAVLVFLGAEYARRGWVQQYHIGALRNNNLRQFKLLGPDVGFDSINDRPMAEELSKLLSKQNEENLLPKTILYCLNPRDNEVLGTMIGNFQGEGMPGKMQFGSGWWFNDQKDGMERQMTQLAQLGLLSRFVGMLTDSRSFLSYTRHEYFRRILCQMIGRWVEAGEAPADINLLGEMVKNICFNNARDYFAIELN,soluble
